Legend:
[1] = target: T1, human B-cell associated protein-37 (human BAP-37) (human, UniProt O35129 1-299 (mouse entry), limits assumed); test: cell-based or functional assay
[2] = target: T1, human B-cell associated protein-37 …; test: cell-based or functional assay; remark: listed apart in the source

T1 sequence (O35129 whole entry): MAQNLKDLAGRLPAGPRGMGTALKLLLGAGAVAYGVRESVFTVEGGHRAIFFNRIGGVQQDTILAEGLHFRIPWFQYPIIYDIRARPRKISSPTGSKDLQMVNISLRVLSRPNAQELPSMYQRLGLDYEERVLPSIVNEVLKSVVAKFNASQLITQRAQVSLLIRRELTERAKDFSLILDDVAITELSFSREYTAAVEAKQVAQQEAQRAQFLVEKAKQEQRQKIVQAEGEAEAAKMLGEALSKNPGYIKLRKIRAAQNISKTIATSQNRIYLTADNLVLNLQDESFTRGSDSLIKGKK

| endogenous epsilon inhibition ratio (TAQMAN quantitative PCR, +IL-4/+Dox to +IL-4/-Dox) [1] | Reporter Ratio (A5T4 reporter line, IL-4 induced germline epsilon transcription) [2] | Binder |
| --- | --- | --- |
| 2.15 | 1.39 | TGVHVELQINRSIMHYISSP [peptide CL08wt] |
| – | 1.17 | TGAAVELQINRSIMHYISSP [peptide CL08VH] |
| – | 1.6 | TGVHVELQIAASIMHYISSP [peptide CL08NR] |

Source: patent US20040014649A1 (RIGEL PHARMACEUTICALS, published 2004)
